Key:
Assay in all cases: filter
[1] = molecular target: alpha-thrombin (Homo sapiens) (UniProt P00734+P00734); conditions: 5-BrdU replaces T, apparent photocrosslink KD
[2] = molecular target: T1, L-Selectin (Homo sapiens) (UniProt P14151); conditions: 5-BrdU replaces T; apparent photocrosslink KD; plateau 25%
T1 sequence: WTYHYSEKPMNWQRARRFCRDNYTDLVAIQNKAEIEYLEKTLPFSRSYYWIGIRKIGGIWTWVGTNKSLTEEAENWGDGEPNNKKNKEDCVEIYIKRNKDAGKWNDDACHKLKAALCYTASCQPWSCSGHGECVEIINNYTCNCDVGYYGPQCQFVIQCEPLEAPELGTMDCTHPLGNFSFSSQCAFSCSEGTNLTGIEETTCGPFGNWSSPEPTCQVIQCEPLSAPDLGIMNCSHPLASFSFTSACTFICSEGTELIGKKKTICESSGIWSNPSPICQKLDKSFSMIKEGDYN

Kininogen = molecular target: T2, Kininogen (UniProt P01042); conditions: 5-BrdU replaces T; apparent photocrosslink KD; plateau 64%
T2 sequence: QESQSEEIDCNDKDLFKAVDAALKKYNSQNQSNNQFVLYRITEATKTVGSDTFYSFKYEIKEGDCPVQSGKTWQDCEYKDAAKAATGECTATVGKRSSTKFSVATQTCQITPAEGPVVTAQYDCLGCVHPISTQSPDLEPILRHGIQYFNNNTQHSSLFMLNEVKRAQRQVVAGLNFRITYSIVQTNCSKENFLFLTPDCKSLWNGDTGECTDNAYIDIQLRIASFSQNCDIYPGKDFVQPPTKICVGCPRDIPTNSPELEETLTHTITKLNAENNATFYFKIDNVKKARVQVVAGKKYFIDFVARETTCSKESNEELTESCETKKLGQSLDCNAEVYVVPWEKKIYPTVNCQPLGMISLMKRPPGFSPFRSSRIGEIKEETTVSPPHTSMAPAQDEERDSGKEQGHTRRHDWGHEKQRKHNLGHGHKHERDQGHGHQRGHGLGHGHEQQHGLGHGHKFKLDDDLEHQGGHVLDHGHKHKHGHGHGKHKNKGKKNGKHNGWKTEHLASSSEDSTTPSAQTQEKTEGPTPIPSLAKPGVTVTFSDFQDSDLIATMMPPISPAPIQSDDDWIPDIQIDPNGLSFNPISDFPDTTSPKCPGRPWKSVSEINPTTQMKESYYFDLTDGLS

Collagen = conditions: 5-BrdU replaces T; apparent photocrosslink KD; plateau 25%
[3] = molecular target: T3, human neutrophil elastase (hNE) (Homo sapiens) (UniProt P08246); conditions: 5-BrdU replaces T
T3 sequence: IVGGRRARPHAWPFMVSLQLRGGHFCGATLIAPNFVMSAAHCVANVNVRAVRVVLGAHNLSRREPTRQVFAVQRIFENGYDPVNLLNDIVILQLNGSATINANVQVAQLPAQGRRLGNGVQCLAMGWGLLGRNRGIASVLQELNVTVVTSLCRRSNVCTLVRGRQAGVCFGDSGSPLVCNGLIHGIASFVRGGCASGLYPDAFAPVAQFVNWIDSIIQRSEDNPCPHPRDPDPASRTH

Serum Amyloid P = Serum Amyloid P (UniProt P02743); conditions: 5-BrdU replaces T; apparent photocrosslink KD; plateau 55%
Chain of Serum Amyloid P (P02743 20-223): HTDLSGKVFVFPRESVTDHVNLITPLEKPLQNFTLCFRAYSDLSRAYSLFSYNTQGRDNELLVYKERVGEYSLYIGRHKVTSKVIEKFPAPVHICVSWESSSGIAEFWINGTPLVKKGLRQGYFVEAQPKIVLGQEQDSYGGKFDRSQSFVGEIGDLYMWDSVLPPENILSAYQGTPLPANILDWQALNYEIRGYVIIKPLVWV

CTLA-4 Fc = CTLA-4 Fc (UniProt P16410); conditions: 5-BrdU replaces T; apparent photocrosslink KD; plateau 7%
Chain of CTLA-4 Fc (P16410 36-161): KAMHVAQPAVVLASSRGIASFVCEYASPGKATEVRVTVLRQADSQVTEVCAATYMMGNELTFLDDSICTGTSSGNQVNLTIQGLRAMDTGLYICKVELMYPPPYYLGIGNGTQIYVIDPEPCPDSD

Coagulation Factor IX = Coagulation Factor IX (UniProt P00740); conditions: 5-BrdU replaces T; apparent photocrosslink KD; plateau 75%
Plasmin = Plasmin (UniProt P00747+P00747); conditions: 5-BrdU replaces T; apparent photocrosslink KD; plateau 50%
Chain of Plasmin (P00747 97-580, chain 1 of 2): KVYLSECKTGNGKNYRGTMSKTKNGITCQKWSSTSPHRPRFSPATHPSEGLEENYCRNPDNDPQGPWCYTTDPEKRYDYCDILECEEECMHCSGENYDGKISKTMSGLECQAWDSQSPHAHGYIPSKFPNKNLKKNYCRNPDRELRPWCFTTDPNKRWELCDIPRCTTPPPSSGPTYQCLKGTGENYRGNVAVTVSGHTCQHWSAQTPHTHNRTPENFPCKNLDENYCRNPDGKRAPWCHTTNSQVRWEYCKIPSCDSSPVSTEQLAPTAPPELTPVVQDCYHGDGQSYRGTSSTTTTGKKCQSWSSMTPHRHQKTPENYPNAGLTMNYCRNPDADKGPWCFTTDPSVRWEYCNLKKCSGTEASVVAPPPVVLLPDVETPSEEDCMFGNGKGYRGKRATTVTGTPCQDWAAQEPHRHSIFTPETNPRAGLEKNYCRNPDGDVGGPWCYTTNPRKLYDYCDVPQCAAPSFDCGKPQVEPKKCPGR
Chain of Plasmin (P00747 581-810, chain 2 of 2): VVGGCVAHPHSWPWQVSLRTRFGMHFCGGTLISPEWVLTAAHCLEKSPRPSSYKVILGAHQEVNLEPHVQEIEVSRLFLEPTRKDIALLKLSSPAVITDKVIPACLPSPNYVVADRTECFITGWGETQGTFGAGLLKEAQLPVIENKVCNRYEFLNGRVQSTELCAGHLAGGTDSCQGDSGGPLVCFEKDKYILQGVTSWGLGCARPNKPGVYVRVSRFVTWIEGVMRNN

Endostatin = molecular target: T4, Endostatin (UniProt P39060); conditions: 5-BrdU replaces T; apparent photocrosslink KD; plateau 75%
T4 sequence: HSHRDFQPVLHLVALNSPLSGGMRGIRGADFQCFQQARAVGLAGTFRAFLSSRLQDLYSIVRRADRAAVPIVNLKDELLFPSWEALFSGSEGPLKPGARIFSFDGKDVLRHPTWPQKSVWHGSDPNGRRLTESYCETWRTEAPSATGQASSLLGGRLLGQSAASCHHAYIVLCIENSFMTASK

Thrombopoietin (Tpo) = Thrombopoietin (Tpo) (UniProt P40225); conditions: 5-BrdU replaces T; apparent photocrosslink KD; plateau 50%
Chain of Thrombopoietin (Tpo) (P40225 22-353): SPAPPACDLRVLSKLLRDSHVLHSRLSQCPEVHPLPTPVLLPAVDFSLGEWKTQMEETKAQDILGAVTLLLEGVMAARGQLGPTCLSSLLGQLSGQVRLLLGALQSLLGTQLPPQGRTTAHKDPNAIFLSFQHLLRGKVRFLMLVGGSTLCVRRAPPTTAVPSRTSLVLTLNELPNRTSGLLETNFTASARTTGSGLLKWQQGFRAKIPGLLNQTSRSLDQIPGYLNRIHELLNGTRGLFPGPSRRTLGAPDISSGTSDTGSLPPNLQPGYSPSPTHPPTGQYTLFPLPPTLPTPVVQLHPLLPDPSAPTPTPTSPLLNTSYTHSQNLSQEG

Factor H = Factor H (UniProt P08603); conditions: 5-BrdU replaces T; apparent photocrosslink KD; plateau 65%; abstract prints Factor II
Chain of Factor H (P08603 19-1231): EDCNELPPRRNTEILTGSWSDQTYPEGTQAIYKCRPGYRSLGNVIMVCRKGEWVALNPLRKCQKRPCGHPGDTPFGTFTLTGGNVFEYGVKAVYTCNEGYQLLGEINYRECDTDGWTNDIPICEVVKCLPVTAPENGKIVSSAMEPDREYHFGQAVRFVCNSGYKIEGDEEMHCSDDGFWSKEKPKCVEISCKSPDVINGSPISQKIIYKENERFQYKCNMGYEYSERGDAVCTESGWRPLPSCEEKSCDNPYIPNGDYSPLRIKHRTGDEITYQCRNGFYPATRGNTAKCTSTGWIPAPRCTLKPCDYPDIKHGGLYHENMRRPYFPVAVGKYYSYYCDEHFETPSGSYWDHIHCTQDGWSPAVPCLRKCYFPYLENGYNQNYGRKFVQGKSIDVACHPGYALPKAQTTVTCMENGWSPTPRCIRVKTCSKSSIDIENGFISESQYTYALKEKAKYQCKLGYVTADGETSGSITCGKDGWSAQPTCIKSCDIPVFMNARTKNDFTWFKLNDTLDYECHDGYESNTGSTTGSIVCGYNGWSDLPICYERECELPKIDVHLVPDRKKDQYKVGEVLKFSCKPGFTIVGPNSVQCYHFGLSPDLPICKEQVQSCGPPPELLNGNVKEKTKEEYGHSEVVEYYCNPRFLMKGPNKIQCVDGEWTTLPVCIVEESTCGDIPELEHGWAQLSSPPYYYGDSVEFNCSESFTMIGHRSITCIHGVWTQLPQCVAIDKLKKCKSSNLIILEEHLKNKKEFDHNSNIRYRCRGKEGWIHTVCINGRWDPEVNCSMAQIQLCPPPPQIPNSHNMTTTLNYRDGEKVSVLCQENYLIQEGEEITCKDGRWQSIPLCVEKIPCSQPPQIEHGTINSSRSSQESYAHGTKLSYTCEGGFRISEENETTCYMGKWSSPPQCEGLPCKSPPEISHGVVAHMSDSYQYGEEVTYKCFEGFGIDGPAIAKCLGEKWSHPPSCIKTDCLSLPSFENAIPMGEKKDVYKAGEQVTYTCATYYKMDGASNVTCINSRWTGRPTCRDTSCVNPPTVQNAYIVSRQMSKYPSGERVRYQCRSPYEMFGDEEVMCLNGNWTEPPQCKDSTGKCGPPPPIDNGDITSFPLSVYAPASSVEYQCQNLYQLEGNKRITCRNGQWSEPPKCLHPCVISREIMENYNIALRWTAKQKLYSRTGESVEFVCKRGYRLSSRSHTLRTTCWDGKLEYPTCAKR

Interleukin-7 = molecular target: T5, Interleukin-7 (UniProt P13232); conditions: 5-BrdU replaces T; apparent photocrosslink KD; plateau 50%
T5 sequence: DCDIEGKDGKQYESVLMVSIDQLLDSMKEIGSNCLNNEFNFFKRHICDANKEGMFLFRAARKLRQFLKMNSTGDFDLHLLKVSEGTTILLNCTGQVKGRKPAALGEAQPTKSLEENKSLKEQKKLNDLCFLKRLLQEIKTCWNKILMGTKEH

Coagulation Factor XII = molecular target: T6, Coagulation Factor XII (UniProt P00748); conditions: 5-BrdU replaces T; apparent photocrosslink KD; plateau 45%
T6 sequence: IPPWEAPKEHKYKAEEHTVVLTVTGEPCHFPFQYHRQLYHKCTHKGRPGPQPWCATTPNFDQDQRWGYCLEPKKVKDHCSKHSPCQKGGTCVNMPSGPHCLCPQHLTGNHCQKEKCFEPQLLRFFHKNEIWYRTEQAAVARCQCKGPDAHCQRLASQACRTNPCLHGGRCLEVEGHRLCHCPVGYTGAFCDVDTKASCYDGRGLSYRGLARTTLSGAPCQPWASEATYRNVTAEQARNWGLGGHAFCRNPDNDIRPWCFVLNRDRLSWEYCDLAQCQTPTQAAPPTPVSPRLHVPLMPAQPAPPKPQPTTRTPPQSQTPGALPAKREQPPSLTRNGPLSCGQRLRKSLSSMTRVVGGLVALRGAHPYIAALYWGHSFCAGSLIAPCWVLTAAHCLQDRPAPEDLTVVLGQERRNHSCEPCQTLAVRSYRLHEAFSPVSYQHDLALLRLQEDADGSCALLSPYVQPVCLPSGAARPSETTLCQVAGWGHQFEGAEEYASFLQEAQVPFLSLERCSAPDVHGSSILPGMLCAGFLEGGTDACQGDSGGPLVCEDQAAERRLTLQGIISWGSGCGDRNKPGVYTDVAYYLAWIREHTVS

[4] = molecular target: Transforming Growth Factor beta1 (TGF-beta1) (UniProt P01137); conditions: 5-BrdU replaces T, apparent photocrosslink KD, plateau 80%
Chain of Transforming Growth Factor beta1 (TGF-beta1) (P01137 279-390): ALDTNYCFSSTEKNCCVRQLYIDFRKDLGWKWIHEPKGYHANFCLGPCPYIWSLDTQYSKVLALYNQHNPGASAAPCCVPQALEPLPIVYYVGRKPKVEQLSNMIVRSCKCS

In the case of “ATATATATGGGAGGACGATGCGGGCAGTAGGTTGGGTAGGGTGGTCTGCTCAGACGACGAGCGGGAAAAAAAA [Thrombin pool 5 clone 4]”, the Kd ([1]; plateau 25%, rate 0.4) is reported as 0.03 nM.

For “ATATATATGGGAGGACGATGCGGGCGGTTGGCGTGGTTGGAAATGTCCCGTCAGACGACGAGCGGGAAAAAAAA [Thrombin pool 5 clone 77]”, the Kd ([1]; plateau 9%, rate 0.64, Table 7 sequence differs from listing (GGTTGCTGTGG vs ggttggcgtgg)) was 0.05 nM.

In the case of “ATATATATGGGAGGACGATGCGGCCGGTTCACGTGCACCATCCGTGTGCTAGACAGACGACGAGCGGGAAAAAAAA [L-Selectin pool 048 clone 21]”, the Kd [2] is reported as 7 nM.

Work on “ATATATATGGGAGGACGATGCGGGACGCTAGTACCCTGGCTGGCTTGGTTGGGCAGACGACGAGCGGGAAAAAAAA [Kininogen pool 046 clone 31]” yielded a Kd (Kininogen) of 7 nM.

“ATATATATGGGAGGACGATGCGGCTACTCCTCCTTAACCCGGGTCTTGTGGCCCAGACGACGAGCGGGAAAAAAAA [Collagen pool 100 clone 36]” was tested, and the Kd (Collagen) was 0.75 nM.

Sequence “ATATATATGGGAGGACGATGCGGCAACCCACCACTCTATCTTTCCCATAACTGCAGACGACGAGCGGGAAAAAAAA [hNE pool 2 clone 43]” has a Kd ([3]; apparent photocrosslink KD, plateau 27%, rate 0.14) of 61 nM.

Work on “ATATATATGGGAGGACGATGCGGGAGGAGCTGATGGGTGGTGAGGTTGGCCAGACGACGAGCGGGAAAAAAAA [Thrombin pool 5 clone 51]” yielded a Kd ([1]; plateau 6%, rate 0.4) of 0.04 nM.

In the case of “ATATATATGGGAGGACGATGCGGGCCGACTCTGAGGAAAAGGTTTTATGTATGGCTACCCCTGCAGACGACGAGCGGGAAAAAAAA [Serum Amyloid P pool 051 clone 50]”, the Kd (Serum Amyloid P) is reported as 0.54 nM.

“ATATATATGGGAGGACGATGCGGGACGCTAATACTTCTGGAGTGGAACGGTTTCAGACGACGAGCGGGAAAAAAAA [CTLA-4 Fc pool 101 clone 60]” showed a Kd (CTLA-4 Fc) of 8 nM.

Sequence “ATATATATGGGAGGACGATGCGGGCCAATCTGTCTTCTTTCCATCCTTATGATCAGACGACGAGCGGGAAAAAAAA [hNE pool 2 clone 73]” has a Kd ([3]; apparent photocrosslink KD, plateau 32%, rate 0.28) of 29 nM.

Sequence “ATATATATGGGAGGACGATGCGGGCGTCTGGGATTTGGACTTCTTCGCTAGCTCAGACGACGAGCGGGAAAAAAAA [Factor IX pool 87 clone 50]” has a Kd (Coagulation Factor IX) of 6.2 nM.

Sequence “ATATATATGGGAGGACGATGCGGCAACCCTGACACCACGTTGTTTCTCCTTTTGGGGTAACCGCAGACGACGAGCGGGAAAAAAAA [Plasmin pool 050 clone 25]” has a Kd (Plasmin) of 78 nM.

With “ATATATATGGGAGGACGATGCGGCACAATGAAGTCACTCTTGACGCTTGTATTCAGACGACGAGCGGGAAAAAAAA [Endostatin pool 92 clone 4]” the Kd (Endostatin) was 2.7 nM.

Work on “ATATATATGGGAGGACGATGCGGGCACACCCAACCTTGCTTCTTCAATCTAATCTCCACTTTGCAGACGACGAGCGGGAAAAAAAA [Tpo pool 059 clone 34]” yielded a Kd (Thrombopoietin (Tpo)) of 64 nM.

For “ATATATATGGGAGGACGATGCGGCCTCATAAAGTTACATCGGCAATTCTTCTCCAGACGACGAGCGGGAAAAAAAA [Factor H pool 94 clone 12]”, the Kd (Factor H) was 14 nM.

Sequence “ATATATATGGGAGGACGATGCGGGCAGGACGGACAGCAAGGGGTGAGCACGAGCAGACGACGAGCGGGAAAAAAAA [Thrombin pool 5 clone 75]” has a Kd ([1]; plateau 62%) of 110 nM.

Work on “ATATATATGGGAGGACGATGCGGGCTGAAAGGAAACGGACGATTGAGCTTCCCCTTACCTCTCCAGACGACGAGCGGGAAAAAAAA [IL-7 pool 042 clone 5]” yielded a Kd (Interleukin-7) of 11 nM.

Sequence “ATATATATGGGAGGACGATGCGGCTGCGTGACAGTTATACTGTTATTGGTCTTCAGACGACGAGCGGGAAAAAAAA [Factor XII pool 89 clone 51]” has a Kd (Coagulation Factor XII) of 53 nM.

With “ATATATATGGGAGGACGATGCGGGCACAATCAAGACCTCTCCAAACTTGAACTCTGTCTATCCCAGACGACGAGCGGGAAAAAAAA [TGF-beta1 pool 015 clone 87]” the Kd ([4]; rate 0.5) was 62 nM.

With “ATATATATGGGAGGACGATGCGGGCACATCACTCTATCATTTGCTACGGTACCGGAGTGAGTCCAGACGACGAGCGGGAAAAAAAA [hNE pool 2 clone 18]” the Kd ([3]; apparent KD from photocrosslinking 308 nm, plateau 37%, rate 0.72 J-1 cm2) was 21 nM.

“ATATATATGGGAGGACGATGCGGGCACCTTTCTTACATCTTGGCTTCATTCTTGCACCATTGGCAGACGACGAGCGGGAAAAAAAA [TGF-beta1 pool 015 clone 83]” showed a Kd ([4]; rate 0.82) of 4.3 nM.
